US20040018561A1, “Peptide compounds and their use as protease substrates” (priority 2002, published 2004)

Assays:
[1] = substrate: COc1ccc2c(CC(=O)N[C@@H](CCCNC(=N)N)C(=O)N3CCC[C@@H]3C(=O)N[C@@H](CC(C)C)C(=O)NCC(=O)N[C@@H](CC(C)C)C(=O)N[C@H](CNc3ccc([N+](=O)[O-])cc3[N+](=O)[O-])C(=O)N[C@@H](C)C(=O)N[C@H](CCCNC(=N)N)C(=O)N[C@@H](CCC(=O)O)C(=O)N[C@H](CCCNC(=N)N)C(N)=O)cc(=O)oc2c1; experiment: purified protein, by the assay type; details: other: substrate cleavage by MMP-9
[2] = substrate: COc1ccc2c(CC(=O)N[C@@H](CCCNC(=N)N)C(=O)N3CCCC3C(=O)N[C@@H](CC(C)C)C(=O)NCC(=O)N[C@@H](CC(C)C)C(=O)N[C@H](CNc3ccc([N+](=O)[O-])cc3[N+](=O)[O-])C(=O)N[C@@H](C)C(=O)N[C@H](CCCNC(=N)N)C(=O)N[C@@H](CCC(=O)O)C(=O)N[C@H](CCCNC(=N)N)C(N)=O)cc(=O)oc2c1; experiment: purified protein, by the assay type; details: other: substrate cleavage by MMP-9
[3] = substrate: COc1ccc2c(CC(=O)N[C@H](CCCNC(=N)N)C(=O)N3CCC[C@H]3C(=O)N[C@@H](CC(C)C)C(=O)NCC(=O)N[C@@H](CCCCOc3ccccc3)C(=O)N[C@@H](CNc3ccc([N+](=O)[O-])cc3[N+](=O)[O-])C(=O)N[C@@H](C)C(=O)N[C@H](CCCNC(=N)N)C(=O)N[C@H](CCC(=O)O)C(=O)N[C@H](CCCNC(=N)N)C(N)=O)cc(=O)oc2c1; experiment: Km and kcat/Km of substrates with MMP-9; format: biochemical; details: other: substrate cleavage by MMP-9
[4] = substrate: COc1ccc2c(CC(=O)N[C@@H](CCCNC(=N)N)C(=O)N3CCC[C@H]3C(=O)N[C@@H](CC(C)C)C(=O)NCC(=O)N[C@@H](CCCCOCc3ccccc3)C(=O)N[C@@H](CNc3ccc([N+](=O)[O-])cc3[N+](=O)[O-])C(=O)N[C@@H](C)C(=O)N[C@@H](CCCNC(=N)N)C(=O)N[C@@H](CCC(=O)O)C(=O)N[C@@H](CCCNC(=N)N)C(N)=O)cc(=O)oc2c1; experiment: Km and kcat/Km of substrates with MMP-9; format: biochemical; details: other: substrate cleavage by MMP-9
[5] = substrate: COc1ccc2c(CC(=O)N[C@H](CCCNC(=N)N)C(=O)N3CCC[C@H]3C(=O)N[C@@H](CC(C)C)C(=O)NCC(=O)N[C@@H](CCCCOCc3ccccc3)C(=O)N[C@@H](CNc3ccc([N+](=O)[O-])cc3[N+](=O)[O-])C(=O)N[C@@H](C)C(=O)N[C@H](CCCNC(=N)N)C(=O)N[C@H](CCC(=O)O)C(=O)N[C@H](CCCNC(=N)N)C(N)=O)cc(=O)oc2c1; experiment: Km and kcat/Km of substrates with MMP-9; format: biochemical; details: other: substrate cleavage by MMP-9
[6] = substrate: COc1ccc2c(CC(=O)N[C@@H](CCCNC(=N)N)C(=O)N3CCCC3C(=O)N[C@@H](CC(C)C)C(=O)NCC(=O)N[C@@H](CC(C)C)C(=O)N[C@H](CNc3ccc([N+](=O)[O-])cc3[N+](=O)[O-])C(=O)N[C@@H](C)C(=O)N[C@H](CCCNC(=N)N)C(=O)N[C@@H](CCC(=O)O)C(=O)N[C@H](CCCNC(=N)N)C(N)=O)cc(=O)oc2c1; experiment: Km and kcat/Km of substrates with MMP-9; format: biochemical; details: other: substrate cleavage by MMP-9
[7] = substrate: COc1ccc2c(CC(=O)N[C@@H](CCCNC(=N)N)C(=O)N3CCC[C@@H]3C(=O)N[C@@H](CC(C)C)C(=O)NCC(=O)N[C@@H](CC(C)C)C(=O)N[C@H](CNc3ccc([N+](=O)[O-])cc3[N+](=O)[O-])C(=O)N[C@@H](C)C(=O)N[C@H](CCCNC(=N)N)C(=O)N[C@@H](CCC(=O)O)C(=O)N[C@H](CCCNC(=N)N)C(N)=O)cc(=O)oc2c1; experiment: Km and kcat/Km of substrates with MMP-1; format: biochemical; details: other: substrate cleavage by MMP-1
[8] = substrate: COc1ccc2c(CC(=O)N[C@H](CCCNC(=N)N)C(=O)N3CCC[C@H]3C(=O)N[C@@H](CC(C)C)C(=O)NCC(=O)N[C@@H](CCCCOCc3ccccc3)C(=O)N[C@@H](CNc3ccc([N+](=O)[O-])cc3[N+](=O)[O-])C(=O)N[C@@H](C)C(=O)N[C@H](CCCNC(=N)N)C(=O)N[C@H](CCC(=O)O)C(=O)N[C@H](CCCNC(=N)N)C(N)=O)cc(=O)oc2c1; experiment: Km and kcat/Km of substrates with MMP-1; format: biochemical; details: other: substrate cleavage by MMP-1
[9] = substrate: COc1ccc2c(CC(=O)N[C@@H](CCCNC(=N)N)C(=O)N3CCC[C@@H]3C(=O)N[C@@H](CC(C)C)C(=O)NCC(=O)N[C@@H](CC(C)C)C(=O)N[C@H](CNc3ccc([N+](=O)[O-])cc3[N+](=O)[O-])C(=O)N[C@@H](C)C(=O)N[C@H](CCCNC(=N)N)C(=O)N[C@@H](CCC(=O)O)C(=O)N[C@H](CCCNC(=N)N)C(N)=O)cc(=O)oc2c1; experiment: Km and kcat/Km of substrates with MMP-2; format: biochemical; details: other: substrate cleavage by MMP-2
[10] = substrate: COc1ccc2c(CC(=O)N[C@H](CCCNC(=N)N)C(=O)N3CCC[C@H]3C(=O)N[C@@H](CC(C)C)C(=O)NCC(=O)N[C@@H](CCCCOc3ccccc3)C(=O)N[C@@H](CNc3ccc([N+](=O)[O-])cc3[N+](=O)[O-])C(=O)N[C@@H](C)C(=O)N[C@H](CCCNC(=N)N)C(=O)N[C@H](CCC(=O)O)C(=O)N[C@H](CCCNC(=N)N)C(N)=O)cc(=O)oc2c1; experiment: Km and kcat/Km of substrates with MMP-2; format: biochemical; details: other: substrate cleavage by MMP-2
[11] = substrate: COc1ccc2c(CC(=O)N[C@@H](CCCNC(=N)N)C(=O)N3CCC[C@H]3C(=O)N[C@@H](CC(C)C)C(=O)NCC(=O)N[C@@H](CCCCOCc3ccccc3)C(=O)N[C@@H](CNc3ccc([N+](=O)[O-])cc3[N+](=O)[O-])C(=O)N[C@@H](C)C(=O)N[C@@H](CCCNC(=N)N)C(=O)N[C@@H](CCC(=O)O)C(=O)N[C@@H](CCCNC(=N)N)C(N)=O)cc(=O)oc2c1; experiment: Km and kcat/Km of substrates with MMP-2; format: biochemical; details: other: substrate cleavage by MMP-2
[12] = substrate: COc1ccc2c(CC(=O)N[C@H](CCCNC(=N)N)C(=O)N3CCC[C@H]3C(=O)N[C@@H](CC(C)C)C(=O)NCC(=O)N[C@@H](CCCCOCc3ccccc3)C(=O)N[C@@H](CNc3ccc([N+](=O)[O-])cc3[N+](=O)[O-])C(=O)N[C@@H](C)C(=O)N[C@H](CCCNC(=N)N)C(=O)N[C@H](CCC(=O)O)C(=O)N[C@H](CCCNC(=N)N)C(N)=O)cc(=O)oc2c1; experiment: Km and kcat/Km of substrates with MMP-2; format: biochemical; details: other: substrate cleavage by MMP-2
[13] = substrate: COc1ccc2c(CC(=O)N[C@@H](CCCNC(=N)N)C(=O)N3CCC[C@@H]3C(=O)N[C@@H](CC(C)C)C(=O)NCC(=O)N[C@@H](CC(C)C)C(=O)N[C@H](CNc3ccc([N+](=O)[O-])cc3[N+](=O)[O-])C(=O)N[C@@H](C)C(=O)N[C@H](CCCNC(=N)N)C(=O)N[C@@H](CCC(=O)O)C(=O)N[C@H](CCCNC(=N)N)C(N)=O)cc(=O)oc2c1; experiment: Km and kcat/Km of substrates with MMP-7; format: biochemical; details: other: substrate cleavage by MMP-7
[14] = substrate: COc1ccc2c(CC(=O)N[C@H](CCCNC(=N)N)C(=O)N3CCC[C@H]3C(=O)N[C@@H](CC(C)C)C(=O)NCC(=O)N[C@@H](CCCCOCc3ccccc3)C(=O)N[C@@H](CNc3ccc([N+](=O)[O-])cc3[N+](=O)[O-])C(=O)N[C@@H](C)C(=O)N[C@H](CCCNC(=N)N)C(=O)N[C@H](CCC(=O)O)C(=O)N[C@H](CCCNC(=N)N)C(N)=O)cc(=O)oc2c1; experiment: Km and kcat/Km of substrates with MMP-7; format: biochemical; details: other: substrate cleavage by MMP-7

B1: MMP-9 (Homo sapiens) (protein)
chain: MRTPRCGVPDLGRFQTFEGDLKWHHHNITYWIQNYSEDLPRAVIDDAFARAFALWSAVTPLTFTRVYSRDADIVIQFGVAEHGDGYPFDGKDGLLAHAFPPGPGIQGDAHFDDDELWSLGKGVVVPTRFGNADGAACHFPFIFEGRSYSACTTDGRSDGLPWCSTTANYDTDDRFGFCPSERLYTQDGNADGKPCQFPFIFQGQSYSACTTDGRSDGYRWCATTANYDRDKLFGFCPTRADSTVMGGNSAGELCVFPFTFLGKEYSTCTSEGRGDGRLWCATTSNFDSDKKWGFCPDQGYSLFLVAAHEFGHALGLDHSSVPEALMYPMYRFTEGPPLHKDDVNGIRHLYGPRPEPEPRPPTTTTPQPTAPPTVCPTGPPTVHPSERPTAGPTGPPSAGPTGPPTAGPSTATTVPLSPVDDACNVNIFDAIAEIGNQLYLFKDGKYWRFSEGRGSRPQGPFLIADKWPALPRKLDSVFEERLSKKLFFFSGRQVWVYTGASVLGPRRLDKLGLGADVAQVTGALRSGRGKMLLFSGRRLWRFDVKAQMVDPRSASEVDRMFPGVPLDTHDVFQYREKAYFCQDRFYWRVSSRSELNQVDQVGYVTYDILQCPED
Km [1]: 6.4 µM
kcat/Km [1]: 41.8 M^−1s^−1×10^4
Km [2]: 8.2 µM
kcat/Km [2]: 133 M^−1s^−1×10^4
Km [3]: 1.4 µM
kcat/Km [3]: 191 M^−1s^−1×10^4
Km [4]: 2.3 µM
kcat/Km [4]: 147 M^−1s^−1×10^4
Km [5]: 3.3 µM
kcat/Km [5]: 31.9 M^−1s^−1×10^4
Km [6]: 6.2 µM
kcat/Km [6]: 129 M^−1s^−1×10^4

B2: MMP-1 (Homo sapiens) (protein)
chain: FVLTEGNPRWEQTHLTYRIENYTPDLPRADVDHAIEKAFQLWSNVTPLTFTKVSEGQADIMISFVRGDHRDNSPFDGPGGNLAHAFQPGPGIGGDAHFDEDERWTNNFREYNLHRVAAHELGHSLGLSHSTDIGALMYPSYTFSGDVQLAQDDIDGIQAIYGRSQNPVQPIGPQTPKACDSKLTFDAITTIRGEVMFFKDRFYMRTNPFYPEVELNFISVFWPQLPNGLEAAYEFADRDEVRFFKGNKYWAVQGQNVLHGYPKDIYSSFGFPRTVKHIDAALSEENTGKTYFFVANKYWRYDEYKRSMDPGYPKMIAHDFPGIGHKVDAVFMKDGFFYFFHGTRQYKFDPKTKRILTLQKANSWFNCRKN
Km [7]: 49 µM
kcat/Km [7]: 5.7 M^−1s^−1×10^4
Km [8]: 35.1 µM
kcat/Km [8]: 0.36 M^−1s^−1×10^4

B3: MMP-2 (Homo sapiens) (protein)
chain: YNFFPRKPKWDKNQITYRIIGYTPDLDPETVDDAFARAFQVWSDVTPLRFSRIHDGEADIMINFGRWEHGDGYPFDGKDGLLAHAFAPGTGVGGDSHFDDDELWTLGEGQVVRVKYGNADGEYCKFPFLFNGKEYNSCTDTGRSDGFLWCSTTYNFEKDGKYGFCPHEALFTMGGNAEGQPCKFPFRFQGTSYDSCTTEGRTDGYRWCGTTEDYDRDKKYGFCPETAMSTVGGNSEGAPCVFPFTFLGNKYESCTSAGRSDGKMWCATTANYDDDRKWGFCPDQGYSLFLVAAHEFGHAMGLEHSQDPGALMAPIYTYTKNFRLSQDDIKGIQELYGASPDIDLGTGPTPTLGPVTPEICKQDIVFDGIAQIRGEIFFFKDRFIWRTVTPRDKPMGPLLVATFWPELPEKIDAVYEAPQEEKAVFFAGNEYWIYSASTLERGYPKPLTSLGLPPDVQRVDAAFNWSKNKKTYIFAGDKFWRYNEVKKKMDPGFPKLIADAWNAIPDNLDAVVDLQGGGHSYFFKGAYYLKLENQSLKSVKFGSIKSDWLGC
Km [9]: 9.9 µM
kcat/Km [9]: 17.8 M^−1s^−1×10^4
Km [10]: 3.6 µM
kcat/Km [10]: 196 M^−1s^−1×10^4
Km [11]: 8.3 µM
kcat/Km [11]: 134 M^−1s^−1×10^4
Km [12]: 3.7 µM
kcat/Km [12]: 60 M^−1s^−1×10^4

B4: MMP-7 (Homo sapiens) (protein)
chain: YSLFPNSPKWTSKVVTYRIVSYTRDLPHITVDRLVSKALNMWGKEIPLHFRKVVWGTADIMIGFARGAHGDSYPFDGPGNTLAHAFAPGTGLGGDAHFDEDERWTDGSSLGINFLYAATHELGHSLGMGHSSDPNAVMYPTYGNGDPQNFKLSQDDIKGIQKLYGKRSNSRKK
Km [13]: 81.2 µM
kcat/Km [13]: 2.2 M^−1s^−1×10^4
Km [14]: 94.7 µM
kcat/Km [14]: 0.298 M^−1s^−1×10^4
